Test results as given in the supplement of paper PMC12042874.
± gives the uncertainty stated by the source.

Experiment: amyloid nucleation score (Sup35N fusion, yeast selection) (log enrichment); library NNK3; higher = more nucleation; inactive = no reads after selection
Method in brief: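 The nucleation score, computed with DiMSum, is the log enrichment of output over input reads, centred on the mode score of non-aggregating sequences. Sequences with under 100 input reads were dropped. Reads were generated by Illumina sequencing of plasmid inserts from psi-negative yeast with Sup35N fused to peptides of 20 random codons, induced with 100 μM copper sulfate for 24 hours and grown 7 days at 30°C on medium lacking adenine and uracil.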

Row | Substance | amyloid nucleation score
1 | WDDEFVWSGINN | inactive
2 | MVLKLNESSMIFKDTTYP | inactive
3 | FFCKRFYSKFPDQWLAHSVE | inactive
4 | CMVLRYVTVVSGMSQAKRMY | inactive
5 | FPSIFCPCFLTIYMFGWIVS | inactive
6 | HWGHVHLVIRLPVMPDSDNR | inactive
7 | GSSYTGTEVVCKLDFSHVFR | 0.92 ± 0.13
8 | LTGLEMLYYTCFNVCTRKCV | inactive
9 | NNCYRMGFLCPTNRQTMEG | inactive
10 | TVLITIIFTSRGVAVRKS | -1.19 ± 1.9
11 | GVGNWKP | inactive
12 | CCSSRMYLEGCPSLRLMEHI | inactive
13 | SQLKMSYRHYPMMMCVIVFS | inactive
14 | GVIWSMWIASL | inactive
15 | CPAYMYCTGMSVNTCPGKGG | inactive
16 | SQSWMSNLLMGSRDDL | 1.58 ± 0.13
17 | FKMPTIRLVLK | inactive
18 | WKYGKLISPFVQDVVSLSIK | inactive
19 | TRYGNW | inactive
20 | MKGQLARSSDLSRLDVNCMG | inactive
21 | QILLFSFRVLFAGYRKIAST | inactive
22 | CMMWNRGFT | inactive
23 | TVLSIIVFSYLLVCYHLVSV | inactive

Row | Substance | amyloid nucleation score
24 | GMQPVQQ | inactive
25 | LEDSLPQIPTQIVGWWFLKM | inactive
26 | RFMSCMGFPHRCHGSSRYVG | inactive
27 | SHLFREIDITWSCSLVISCN | inactive
28 | CCAVLFRGVRGMVRCNWNFD | inactive
29 | RQCGVVIKFLMISTLISSIA | inactive
30 | YITLRGLWRYCQVMLVYVWK | inactive
31 | SLIYTRFGSTSWCSKNF | 1.53 ± 0.14
32 | FLLVNLTVITRACEKLPMRP | -0.277 ± 1.1
33 | YIIRENLW | inactive
34 | ERRKIGLKLLRLRQNNGIMA | inactive
35 | IENQSRCLLTNVATVN | inactive
36 | IWKGCSACFGKD | -0.222 ± 1.2
37 | EFWQFDRYVLSNTVSLFSGC | inactive
38 | YEAYV | inactive
39 | EHFNPRNC | inactive
40 | QLWNWVFYYISNILGKGMHL | inactive
41 | ACTRWS | inactive
42 | CCGGFIVMQQAGGSPIDGQG | 0.29 ± 0.2
43 | NENHGCYMGRVFQCGIYEYV | 1.44 ± 0.13
44 | GRKAWDEL | inactive
45 | RAHIPWKRCFV | -1.06 ± 1.9
46 | GGQVRDCDNVEQCSATNSEG | inactive

Row | Substance | amyloid nucleation score
47 | MWGVCSFFAFPHIIFM | 1.33 ± 0.11
48 | LFPSADLATITG | inactive
49 | ERKVCAG | inactive
50 | EQSLFES | inactive
51 | MTESNGGFPG | inactive
52 | FWNSFHFVNNYWHVY | inactive
53 | SSVVT | inactive
54 | STVNVCYVSMGNWERLTDVR | 0.446 ± 0.26
55 | SNDFEVLVLQLLYFSIWCY | 1.48 ± 0.091
56 | GGYSQKLYILYDYLFENYYS | inactive
57 | ATRTNYCACPLLMARWMSVL | inactive
58 | LRRRSLDHKSGSYLVTG | inactive
59 | WWGNRAVVYIILLHEPGAWR | inactive
60 | RFIEKTSKIMSPDAYPSLKY | inactive
61 | NPDAYKERTDLVWSVVVLLW | inactive
62 | ANTFKVWPKDICAGTVYM | inactive
63 | FYLYPDVERLNFCIMVRHMF | inactive
64 | SNEEYGGSQKETCTIGSSLG | inactive
65 | CVPNWVVCRLSIYKF | inactive
66 | SEAMFSIVLKECNGGACR | inactive
67 | TMWLLCELFVTC | inactive
68 | GVLSLLFSYIIVYEWKEMGN | inactive
69 | YAHLWKNSEAGWSGKYSILW | inactive

Row | Substance | amyloid nucleation score
70 | DYLLWESKGLVWKCMMTCCG | inactive
71 | VDWNRTFEIKSVEGDVKGAL | inactive
72 | RSILVFHSDRLKYGYLMIDV | inactive
73 | ILQTLQDVRVRGMDISTASL | inactive
74 | LKSWDTIWVEDNYSLC | -0.148 ± 0.81
75 | YRKLFDFRRVSTLHFTKSN | inactive
76 | IILLSGDSSSRIQEVKVGKK | inactive
77 | AKIVECM | inactive
78 | GCKTREVLLYWLIMRPGGYS | inactive
79 | STCLTD | inactive
80 | LVVSVRTYPTGCCPYKMLNQ | inactive
81 | YMRLGRWWSFKAVDGRRLKW | -0.373 ± 1.3
82 | ILKVVWYNSPEG | 0.898 ± 0.16
83 | VCQGFSKFLRWSQVRFLSMA | -0.288 ± 1.4
84 | ISHVNRSNLVFLYFIVVL | 0.669 ± 0.15
85 | GVLASIKELH | inactive
86 | MSGVDYLTRLFVYTNESDAV | inactive
87 | SQRELYH | inactive
88 | MYFFSHPPSNRRE | inactive
89 | SCGLGLLAVVEKCVVTHRFF | inactive
90 | CHKVLWSSVKTVDFMLSNMG | inactive
91 | NKRGNVASLLSLACKYGAEQ | inactive
92 | GSLVRV | inactive

Row | Substance | amyloid nucleation score
93 | GCSLGTHSVTLTFM | inactive
94 | AKGAMLCTMT | inactive
95 | FFYSAFENMMMALLKMRKFH | inactive
96 | WSFVPRGIVVSRRLSVYTRT | inactive
97 | FSKVTFHSCGIQCERQVKNN | inactive
98 | YHYLSNVGMRWGDFTYSWFM | inactive
99 | SVRGIKVNLWRKEDLYASTQ | inactive
100 | FAQFLG | inactive
101 | LKSSPNPFMNNGFIISAILG | inactive
102 | WRAADDQTWGLVRCLSI | 0.57 ± 0.17
103 | RCMIVASFYLSLIWKI | inactive
104 | GVDRRIR | inactive
105 | SAVRHRLWVVGLASTRLYEC | -0.24 ± 1.1
106 | RYTWTTDYNVM | inactive
107 | FWMMDYMYSVRMNFVWGYIR | inactive
108 | LRSFGYRRQ | inactive
109 | TLSDQFDMISWVSK | inactive
110 | VIITNEMVDRVDGDTTSYMH | -0.003 ± 1
111 | LLDCFKLYSSHLAEGRTTVT | inactive
112 | APLMTYMVMTFMWDSKELPD | inactive
113 | MTAGEIDRLLYVS | inactive
114 | VDKDTE | inactive
115 | RACARVLLEVCFLFEFSMST | inactive

Row | Substance | amyloid nucleation score
116 | TPSVRRGVMGVSPELCAMVG | inactive
117 | LLMDYYFVGLKLVPFAVPKV | 1.22 ± 0.15
118 | SSAIMCWRFMLMNSILITTP | inactive
119 | CHVLWGCCIRSQVCCSAYNV | 2.06 ± 0.073
120 | TVGCHSGPELMFQSWNSRSL | inactive
121 | RSWIGTKGPL | inactive
122 | MNEGQSYYKVVITPELLAAR | -0.545 ± 0.96
123 | IVADLHIHCEPRFSSHLTYE | inactive
124 | LNLMD | inactive
125 | PDLTKNSWYLYSYRLV | inactive
126 | DPHCQGFVWGSCMDVWYLSL | 2.7 ± 0.062
127 | SVERVLLRTVASVGGDVDVN | inactive
128 | NFITRWCGFSGSA | 0.608 ± 0.2
129 | GMFARHVFMIIEPHRIIVFH | inactive
130 | RIRALLD | inactive
131 | SITFGFESFDVVLGNM | inactive
132 | RYHYLSSLSMNVNTGELWMD | inactive
133 | AMEIRNVQELSIGPGNWMET | inactive
134 | SFKSTSYIITFNWKIVAVWK | inactive
135 | KVVVKEIQILVGSAGSKRMS | 0.638 ± 0.25
136 | CMRGWNSRVE | inactive
137 | LNDGALDGQSTDALMGMEMR | inactive
138 | STNWMVRLFYSRIEWGVNLG | inactive

Row | Substance | amyloid nucleation score
139 | SGPSGSRCGDITLDTPPVLL | inactive
140 | RPYGFKAIVYGQCR | inactive
141 | SYCYSIAMLAMIFLLMQCVI | -0.011 ± 0.43
142 | GFGGSSAHDRGYETRKSSLE | inactive
143 | CMIFGVSLAYVCGCSLYGVG | inactive
144 | TFSVRLSYLSRNAICDERVL | 0.33 ± 0.46
145 | VGCHLWEHWRSMQVR | inactive
146 | RTSVYAALSWGEAVLREVFE | inactive
147 | NLNFDWTPVPSFSYHAPSKF | inactive
148 | KISNFLTSSLCMYGSLRWRV | 0.548 ± 0.2
149 | SQFTEICTPVRHGSCCR | inactive
150 | LNLSLVNCLMAVTCSLFL | 1.44 ± 0.13
151 | TYGNLFNNCDKIYRRQNRSL | inactive
152 | SYGGYQFLYVNSDKLRV | inactive
153 | YKICSLACVKHGREPV | inactive
154 | CAQMPCMLENGP | inactive
155 | HLLTAVILITIGVNRVTWWG | inactive
156 | LNQGHYSVDLSSATGTVTTF | inactive
157 | FLLGPSLTPNSMG | inactive
158 | VLLIWIIVPTWF | 0.5 ± 0.14
159 | TTMWFLWEVSGYCHKCN | inactive
